US20120122214A1

Molecular target: bovine serum albumin (bovine) (UniProt P02769)
Test: flow cytometry; iPS-MP in suspension with control fluorescent particles coated with only albumin, 37° C., 90 minutes

Chain of bovine serum albumin (bovine) (P02769 25-607 limits assumed): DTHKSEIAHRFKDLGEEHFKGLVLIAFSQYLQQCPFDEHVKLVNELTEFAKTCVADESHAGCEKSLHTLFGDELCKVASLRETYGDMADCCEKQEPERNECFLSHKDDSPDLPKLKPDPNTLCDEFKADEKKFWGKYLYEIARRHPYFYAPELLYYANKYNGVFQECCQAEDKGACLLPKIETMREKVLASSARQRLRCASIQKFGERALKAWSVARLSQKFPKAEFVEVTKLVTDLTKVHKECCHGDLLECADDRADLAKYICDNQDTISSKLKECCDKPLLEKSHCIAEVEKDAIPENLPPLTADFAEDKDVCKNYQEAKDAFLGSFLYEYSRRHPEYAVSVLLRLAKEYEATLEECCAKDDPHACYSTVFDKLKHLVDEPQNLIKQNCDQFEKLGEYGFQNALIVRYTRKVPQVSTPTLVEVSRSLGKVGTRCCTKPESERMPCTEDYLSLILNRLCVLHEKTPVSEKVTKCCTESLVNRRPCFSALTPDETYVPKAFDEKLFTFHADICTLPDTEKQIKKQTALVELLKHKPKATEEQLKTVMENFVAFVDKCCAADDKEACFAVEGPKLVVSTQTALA

## single-chain antibody (scFv) recognizing human β-amyloid peptide, derived from mouse hybridoma clone 3D6, fused to mouse IgG2a Fc portion and mouse Fc receptor (FcγRI) trans-cell membrane-cytoplasm portion, expressed on iPS-MP
  mean fluorescence intensity: 781
  percent of cells bound to the beads: 25.5%
